Results on one molecule are retold here after US20240270866A1 (Alector, published 2024).

For assay [1], the target named is T1, human SIRPA overexpressed on CHO cells (human, UniProt P78324 31-504).
T1 construct: also called CHO-huSIRPA
In words: flow, CHO-huSIRPA.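 Further: Anti-SIRPA antibodies applied at 1 µg/mL for 1 h on ice, binding read by flow cytometry using a PE-labelled secondary antibody.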
Experimental: Initial characterization of anti-SIRPA antibodies of the present disclosure involved determining their ability to bind cell lines overexpressing human or mouse SIRPA. Cells were harvested, plated at 10⁶/ml in a 96 well plate, washed, and incubated in 100 ul PBS containing 1 ug/ml Mab for 1 hour in ice. Cells were then washed twice and incubated in 100 ul PBS containing 5 ug/ml PE-conjugated secondary antibody for 30 minutes in ice. Cells were washed twice in cold PBS and acquired on a BD FACS Canto. Data analysis and calculation of mean fluorescence intensity (MFI) values or % positive cells was performed with FlowJo® (TreeStar) software version 10.0.7.

Assay [2] has as its target T2, mouse SIRPA overexpressed on CHO cells (mouse, UniProt P97797 32-513).
T2 construct: also called CHO-muSIRPA
T2 sequence: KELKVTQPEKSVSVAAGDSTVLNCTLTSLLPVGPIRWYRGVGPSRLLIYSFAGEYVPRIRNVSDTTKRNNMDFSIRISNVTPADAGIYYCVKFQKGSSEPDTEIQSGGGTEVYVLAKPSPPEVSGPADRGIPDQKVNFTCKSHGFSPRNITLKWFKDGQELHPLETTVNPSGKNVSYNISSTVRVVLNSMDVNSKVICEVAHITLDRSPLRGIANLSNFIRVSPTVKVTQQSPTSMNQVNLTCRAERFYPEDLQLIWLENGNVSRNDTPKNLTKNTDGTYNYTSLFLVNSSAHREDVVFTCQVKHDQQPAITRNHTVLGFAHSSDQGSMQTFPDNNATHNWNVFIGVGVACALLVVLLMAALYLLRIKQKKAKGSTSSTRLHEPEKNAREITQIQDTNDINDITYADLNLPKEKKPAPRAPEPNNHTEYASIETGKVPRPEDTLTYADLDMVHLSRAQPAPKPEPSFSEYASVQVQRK
The experiment in a line: flow, CHO-muSIRPA.

Assay [3] addresses T3, human SIRPA Fc fusion antigen (human, UniProt P78324 31-373).
T3 construct: heterologous signal peptide; not shown: human IgG1 Fc
The experiment in a line: ForteBio IgG avid. For orientation: In BLI a coated tip is dipped into the sample, and binding shifts an interference pattern.

Assay [4] addresses T4, human SIRPβ1 Fc fusion antigen (human, UniProt O00241 30-371).
T4 construct: not shown: human IgG1 Fc
In words: ForteBio IgG avid.

The target of assay [5] is T2, mouse SIRPA overexpressed on CHO cells. In words: flow, CHO-muSIRPA. This is another data set of the same source.
Assay [6] has as its target human SIRPA-DAP12 chimera on BWZ NFAT-luciferase reporter cells (human, UniProt O43914 62-113, limits assumed). In words: cell-based or functional assay.
For the next assay, the target named is Human SIRPb D1 Fc (human, UniProt O00241 30-148, limits assumed). The experiment in a line: ForteBio IgG avid.
The target in a further assay is T5, Mouse SIRPA D1 Fc (mouse, UniProt P97797 32-150, limits assumed).
T5 sequence: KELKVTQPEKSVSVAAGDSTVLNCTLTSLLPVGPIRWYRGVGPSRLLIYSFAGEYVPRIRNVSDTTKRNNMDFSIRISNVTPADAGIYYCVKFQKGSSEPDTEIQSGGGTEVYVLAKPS
In words: ForteBio IgG avid.

For the next assay, the target named is T6, Human SIRPA D1 Fc (human, UniProt P78324 32-137).
T6 construct: not shown: human IgG1 Fc
The experiment in a line: ForteBio IgG avid.

Human SIRPb D1 Fc, sequence (O00241 30-148 limits assumed): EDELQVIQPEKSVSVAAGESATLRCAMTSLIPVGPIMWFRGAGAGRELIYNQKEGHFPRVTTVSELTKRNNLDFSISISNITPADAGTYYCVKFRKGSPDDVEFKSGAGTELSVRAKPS
T4 sequence (O00241 30-371 limits assumed): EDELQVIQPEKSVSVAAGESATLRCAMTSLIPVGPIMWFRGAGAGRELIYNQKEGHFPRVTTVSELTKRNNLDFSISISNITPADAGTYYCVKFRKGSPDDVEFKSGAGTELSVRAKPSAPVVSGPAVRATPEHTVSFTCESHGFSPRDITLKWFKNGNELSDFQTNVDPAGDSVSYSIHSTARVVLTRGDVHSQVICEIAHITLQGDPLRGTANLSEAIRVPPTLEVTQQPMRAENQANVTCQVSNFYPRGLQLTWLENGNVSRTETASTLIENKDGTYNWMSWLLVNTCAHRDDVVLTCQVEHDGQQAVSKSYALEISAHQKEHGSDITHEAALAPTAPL

B1: SA-56 (antibody, V domains shown)
VH: EVQLVESGGGLVKPGGSLRLSCAASGFTFSSYSMNWVRQAPGKGLEWVSSISSSSSYIYYADSVKGRFTISRDNAKNSLYLQMNSLRAEDTAVYYCARGVETYSGPNWFDPWGQGTLVTVSS
VL: DIQMTQSPSSVSASVGDRVTITCRASQGISSWLAWYQQKPGKAPKLLIYAASSLQSGVPSRFSGSGSGTDFTLTISSLQPEDFATYYCQQAIYFPITFGGGTKVEIK
notes: IgG; also called SA-56 (parental)
Take B1: the “relative MFI” value is 128 fold over background in assay [1] and 0.583 fold over background in assay [2]. Further, the Kd was found to be 2.04 nM in [3] and 2.81 nM with Human SIRPA D1 Fc. The binding result is “no binding (tested: 100 nM)” in assay [4], “no binding (tested: 1 ug/ml)” in assay [5], “no binding (tested: 100 nM)” with Human SIRPb D1 Fc and “no binding (tested: 100 nM)” with Mouse SIRPA D1 Fc. Besides, the “luminescence of BWZ-huSIRPA reporter cells with SA-56 and plate-bound CD47” value in [6] is roughly 10 fold over background.

What is called Kd is the constant that tells how readily two partners part at equilibrium. A low value points to a tighter complex.
